Experimental data from patent publication US20240067747A1 (SHANGHAI HUAOTA BIOPHARMACEUTICAL, published 2024).
Numbering of substitutions follows the chain as printed.

B1: 900567 (human-mouse chimeric anti-CD73 antigen-binding protein expressed from 124A9 variable regions) (antibody, V domains shown)
VH: QVQLQQPGAELVKPGASVKLSCKASGYTFTSYWIHWVKQRPGQGLDWIGMIHPNSGSTYYNEKFKSKATLTVDKSSSTAYMQLSSLTSEDSAVYYCARYYGSDYEWYFDVWGTGTTVTVSS
VL: DIVMTQSQKFMSTSVGDRVSITCKASQNVRTAVVWYQQNPGQSPKALIYLASNRHTGVPDRFTGSGSGTDFTLTISNVHSEDLADYFCLQHWNYPYTFGGGTKLEIK
B2: 900725 (humanized anti-CD73 antigen-binding protein) (antibody, V domains shown)
VH: QVQLVQSGAEVKKPGASVKLSCKASGYTFTSYWIHWVRQAPGQGLEWIGMIHPNSGSTYYNEKFKGRATLTVDKSTSTAYMELSSLRSEDTAVYYCARYYGSDYEWYFDVWGQGTTVTVSS
VL: DIQMTQSPSSMSASVGDRVTITCKASQNVRTAVVWYQQKPGKAPKALIYLASNRHTGVPDRFSGSGSGTDFTLTISSLQPEDFATYFCLQHWNYPYTFGQGTKLEIK
B3: 900728 (humanized anti-CD73 antigen-binding protein) (antibody, V domains shown)
VH: B2 VH with L20V, K65Q, A68V, L70M
VL: B2 VL with M11L, F87Y
B4: 900726 (humanized anti-CD73 antigen-binding protein) (antibody, V domains shown)
VH: B2 VH
VL: B2 VL with M11L, F87Y
B5: 900727 (humanized anti-CD73 antigen-binding protein) (antibody, V domains shown)
VH: B2 VH with L20V, N61A, E62Q, K65Q, A68V, L70I
VL: B2 VL

Key:
[1] = biological target: T1, human CD73 on the cell surface of CHOK1-huCD73-3F4 cells (Huabo Biopharm) (human, UniProt P21589 27-549); experiment: cell-based or functional assay
T1 sequence (looked up): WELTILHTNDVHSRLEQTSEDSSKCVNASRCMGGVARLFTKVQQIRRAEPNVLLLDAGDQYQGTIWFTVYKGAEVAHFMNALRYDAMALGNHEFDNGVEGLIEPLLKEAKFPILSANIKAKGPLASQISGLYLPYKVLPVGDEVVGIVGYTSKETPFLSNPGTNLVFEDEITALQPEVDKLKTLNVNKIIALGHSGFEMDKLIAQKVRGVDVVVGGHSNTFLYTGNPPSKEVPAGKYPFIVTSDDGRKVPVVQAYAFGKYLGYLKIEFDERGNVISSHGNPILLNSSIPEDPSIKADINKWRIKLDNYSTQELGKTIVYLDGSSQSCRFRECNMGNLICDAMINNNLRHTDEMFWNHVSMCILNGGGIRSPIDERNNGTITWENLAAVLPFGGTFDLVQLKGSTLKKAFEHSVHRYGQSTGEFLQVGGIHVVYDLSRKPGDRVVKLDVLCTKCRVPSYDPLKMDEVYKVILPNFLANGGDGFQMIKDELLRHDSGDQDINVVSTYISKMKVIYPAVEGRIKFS

[2] = biological target: T1, human CD73 on the cell surface of …; experiment: flow cytometry on CHOK1-huCD73-3F4 cells, PE-goat anti-human-Fc
Description: All antigen-binding proteins were diluted to 30 μg/ml with 1% BSA in PBS solution (1% BSA/PBS) and then 3-fold diluted for 11 gradients. The diluted antigen-binding proteins were added to a 96-well U-shaped plate at 20 μL per well; and a negative control (with 1% BSA/PBS added only) was set up at the same time. The suspension of cells (CHOK1-huCD73-3F4, Huabo Biopharm) expressing human CD73 during the logarithmic growth phase were centrifuged (1000 rpm×5 min) to discard the culture medium; and the cells were resuspended with 1% BSA/PBS until the density of viable cells was 1×10⁶/mL, and were added, at 20 μL (2×10⁴ cells) per well, to the 96-well U-shaped plate with the […] antigen-binding protein to react for 30 min at room temperature. After reaction, the 96-well U-shaped plate was resuspended with 1% BSA/PBS, centrifuged (300 g×3 min) to discard the supernatant, and washed once in such a way. PE-goat anti-human-Fc (Jackson ImmunoResearch, #109-115098) diluted at 1:200 was added to react for 15 min in the dark at room temperature. After reaction, the 96-well U-shaped plate was resuspended with 1% BSA/PBS, centrifuged (300 g×3 min) to discard the supernatant, washed three times in such a way, and finally resuspended with 100 μL of 1% BSA/PBS for each wall; and the fluorescence intensity of a PE channel was detected with a flow cytometer (BD, #Cantoll).

[3] = biological target: T2, Lysozyme from chicken egg (Sigma, L3790) (chicken, UniProt P00698 19-147); experiment: SPR, Biacore 8K, lysozyme immobilized on CM5, antibody at 1000 nM; buffer alone 16.9 RU
T2 construct: Non-target molecule, amine-coupled to a CM5 chip
T2 sequence (P00698 19-147 limits assumed): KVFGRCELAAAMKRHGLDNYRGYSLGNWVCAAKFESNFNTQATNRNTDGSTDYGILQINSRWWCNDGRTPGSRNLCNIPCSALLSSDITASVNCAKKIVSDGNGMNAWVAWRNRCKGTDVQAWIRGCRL
Description: (§1) The non-specific adsorption effect of antigen-binding proteins and non-target molecules were determined by using the SPR method.
(§2) The series sensor chip CM5 (GE, #BR-1005-30) was equilibrated at room temperature for 20-30 min and then loaded into the Biacore 8K (GE) instrument. Lysozyme solution (Sigma, #L3790) from egg and trypsin inhibitor type 1-S (Sigma, #T-2327) from Glycine max were immobilized onto the CM5 chip using an amino coupling kit (GE, #BR-1000-50). The injection buffer was HBS-EP (1×) (GE, #BR-1006-69) and four equilibration cycles were set up. The polyclonal rabbit anti-lysozyme (ABcam, Ab391), anti-trypsin inhibitor antibodies (LifeSpan Biosciences, #LS-C76609), chimeric antibodies and humanized antibodies were diluted with equilibration buffer to 1000 nM, and the flow rate was set at 5 μL/min and injection channels 1, 2 and 3, Flow Cell 1 and 2 were selected. The association time was 10 min and the dissociation time was 10 min.
(§3) The PI of carboxymethyl dextran was 3.5, the PI of the trypsin inhibitor was 4.5, and the PI of lysozyme was 11.3. In the HBS-EP buffer solution with a pH of 7.4, carboxymethyl dextran and the trypsin inhibitor had strong negative charges, and lysozyme had strong positive charges.

[4] = biological target: T3, Trypsin inhibitor type 1-S from Glycine max (Sigma, T-2327) (Glycine max, UniProt P01070 25-205); experiment: SPR, Biacore 8K, trypsin inhibitor immobilized on CM5, antibody at 1000 nM; buffer alone 13.9 RU
T3 construct: Non-target molecule, amine-coupled to a CM5 chip
T3 sequence (looked up): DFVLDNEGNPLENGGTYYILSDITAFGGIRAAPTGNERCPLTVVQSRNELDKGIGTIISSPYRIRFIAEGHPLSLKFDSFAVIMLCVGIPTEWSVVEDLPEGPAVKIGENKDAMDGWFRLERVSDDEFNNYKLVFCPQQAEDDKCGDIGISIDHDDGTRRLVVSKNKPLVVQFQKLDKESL
Description: as §1, §2, §3

| Binder | EC50 of inhibition of the enzyme activity of CD73 on cell membrane (AMP/ATP, CellTiter-Glo) [1] [mg/L] | EC50 [2] [mg/L] | non-specific binding amount (RU) [3] [RU] | non-specific binding amount (RU) [4] [RU] |
| --- | --- | --- | --- | --- |
| B1 | 0.0749 | 0.021 | 15.8 | 12.8 |
| B2 |  |  | 20.3 | 12.6 |
| B3 |  |  | 20.2 | 13.5 |
| B4 |  |  | 17.7 | 15.4 |
| B5 |  |  | 17.6 | 11.6 |
